What was measured:
[1] = target: Isoform 121 of human VEGF-A (Peprotech) (human) (UniProt P15692); assay: phage ELISA on native VEGF-A 121
[2] = target: Human VEGF-A treated with DTT (reduced) (human) (UniProt P15692); assay: phage ELISA on DTT-reduced VEGF-A 121
[3] = target: Isoform 121 of human VEGF-A (Peprotech) (human) (UniProt P15692); assay: phage ELISA on coated VEGF-A 121, without KDR-Fc
[4] = target: Isoform 121 of human VEGF-A (Peprotech) (human) (UniProt P15692); assay: phage ELISA on coated VEGF-A 121, competitor KDR-Fc 2 µg/mL
[5] = target: Isoform 121 of human VEGF-A (Peprotech) (human) (UniProt P15692); assay: ELISA on coated antigen, 2 µg/mL, 9E10 detection
[6] = target: Isoform 121 of human VEGF-A (Peprotech) (human) (UniProt P15692); assay: ELISA on coated antigen, 20 µg/mL, 9E10 detection
[7] = target: Isoform 121 of human VEGF-A (Peprotech) (human) (UniProt P15692); assay: ELISA on coated antigen, 0.2 µg/mL, 9E10 detection

Sequence of Isoform 121 of human VEGF-A (Peprotech) (human) (P15692 other isoform, or with tags, fused parts or gaps): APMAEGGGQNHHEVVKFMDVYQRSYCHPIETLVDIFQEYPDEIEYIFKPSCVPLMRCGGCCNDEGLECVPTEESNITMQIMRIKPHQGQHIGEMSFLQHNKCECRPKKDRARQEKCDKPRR
Sequence of Human VEGF-A treated with DTT (reduced) (human) (P15692 other isoform, or with tags, fused parts or gaps limits assumed): as the sequence (P15692 other isoform, or with tags, fused parts or gaps) above

B1: phage clone 2H1-F (scFv, not shown: large carriers; small tags and cut ends)
scFv: QQVQLVQSGAEVKKPGESLKISCKGSGYSFTSYWIGWVRQMPGKGLEWMGIIYPGDSDTRYSPSFQGQVTISADKSISTAYLQWSSLKASDTAMYYCARLVVRDTEIWGQGTMVTVSSAPQAKSSGSGSESKVDQAVVTQEPSLTVSPGGTVTLTCASSIGAVTSGNYPNWFQQRPGQPPRALIYSTSNKHSWTPARFSGSLLGGKAALTLSGAQPEDEAEYYCLLSYSGARPVFGGGTKLTVLG
[1]
  Optical Density (492 nm): 1.25 OD 492 nm
[2]
  Optical Density (492 nm): 0.103 OD 492 nm
[3]
  Optical Density (492 nm): 1.15 OD 492 nm
[4]
  Optical Density (492 nm): 0.577 OD 492 nm

B2: Fab 2H1-32 (Fab, V domains shown)
VH: QVQLVQSGAEVKKPGESLKISCKGSGYSFTSYWIGWVRQMPGKGLEWMGIIYPGDSDTRYSPSFQGQVTISADKSISTAYLQWSSLKASDTAMYYCARLVVRDTEIWGQGTMVTVSS
VL: QAVVTQEPSLTVSPGGTVTLTCASSIGAVTSGNYPNWFQQRPGQPPRALIYSTSNKHSWTPARFSGSLLGGKAALTLSGAQPEDEAEYYCLLSYSGARPVFGGGTKLTVLG
[5]
  Optical Density (492 nm): 1.09 OD 492 nm
[6]
  Optical Density (492 nm): 1.02 OD 492 nm
[7]
  Optical Density (492 nm): 0.675 OD 492 nm
